Experiment [1] has as its target T1, soluble human GCGR extracellular domain (human, UniProt P47871 26-136, limits assumed).
T1 construct: also called soluble GCGR
Description: Octet epitope binning; antibody in solution on GCGR ECD held by immobilized 1H2 (competitor). How it is done: (§1) KD values for exemplary antibodies were derived using ForteBio software. Exemplary antibodies 6B5, 13G19, 14E9, 14F4, 4F8, 1G7, l A8, I H7, 1A2, 1B4, 1C1, 1H2, 1C3, and 1D2 were immobilized on biosensor tips. Soluble human GCGR extracellular domain (500 nM) was incubated with the antibodies for 3 minutes. […] The biosensor tips with bound antibody-GCGR complex were then dipped in 61B5, 5B11, or 3H-15 antibody solution and the change in signal measured as a nm shift. If the antibody in solution recognized the same epitope as the antibody immobilized on the chip surface, then <0.1 nm shift in signal (noise level of Octet) would be observed. If the antibody in solution recognized a distinct epitope relative to the immobilized antibody, an increase in signal of >0.15 nm shift would be observed. In the latter scenario, the antibody in solution could bind to the immobilized antibody-GCGR complex (presumably to a different epitope) resulting in the observed increase in signal.
A general note: In BLI a coated tip is dipped into the sample, and binding shifts an interference pattern.

In experiment [2] the target is T1, soluble human GCGR extracellular domain. Description: Octet epitope binning; antibody in solution on GCGR ECD held by immobilized 1A2 (competitor). How it is done:
as §1

For experiment [3] the target is unchanged. The experiment in a line: Octet epitope binning; antibody in solution on GCGR ECD held by immobilized 1C3 (competitor). How it is done: as §1
Experiment [4] has as its target full-length human GCGR on CHO cells (human, UniProt P47871 26-477). Description: cell-based or functional assay.
For experiment [5], the target named is T1, soluble human GCGR extracellular domain. Description: Octet epitope binning; antibody in solution on GCGR ECD held by immobilized 14F4 (competitor). How it is done: as §1
The target is the same in experiment [6]. The experiment in a line: Octet epitope binning; antibody in solution on GCGR ECD held by immobilized 1H7 (competitor). How it is done: as §1
Experiment [7] has the same target. Description: Biacore SPR, captured antibody, soluble human GCGR extracellular domain as analyte. How it is done:
In some experiments, supernatants were screened for binding to human GCGR using a Biacore SPR system. Briefly, anti-mouse Fc antibody (Sigma-Aldrich) was immobilized on all four flow cells of a CM5 chip using amine coupling reagents (GE Healthcare LifeSciences). Hybridoma supernatants were diluted three-fold with PBS-P buffer (PBS containing 0.005% P20) and injected for 30 seconds overflow cells 2, 3 and 4 to capture the test antibodies and using flow cell 1 as a reference. The next step was an injection of soluble human GCGR extracellular domain (100 nM in PBS-P buffer) at a flow rate of 50 μL/min and monitoring of the binding kinetics at 25° C. Kinetic data were collected over time and fit using the simultaneous global fit equation to yield affinity constants (KD values) for each antibody.
(In general: In SPR one partner is held on a chip, and binding of the other changes the refractive index at the surface.)

Experiment [8] shares this target. Description: Octet epitope binning; antibody in solution on GCGR ECD held by immobilized 1G7 (competitor). How it is done: as §1
For experiment [9] the target is unchanged. The experiment in a line: Octet epitope binning; antibody in solution on GCGR ECD held by immobilized 1C1 (competitor). How it is done:
as §1

Experiment [10] shares this target. The experiment in a line: Octet epitope binning; antibody in solution on GCGR ECD held by immobilized 14E9 (competitor). How it is done:
as §1

Experiment [11] shares this target. The experiment in a line: Octet epitope binning; antibody in solution on GCGR ECD held by immobilized 4F8 (competitor). How it is done:
as §1

For experiment [12] the target is unchanged. Description: Octet epitope binning; antibody in solution on GCGR ECD held by immobilized 1B4 (competitor). How it is done: as §1
Experiment [13] has the same target. The experiment in a line: Octet epitope binning; antibody in solution on GCGR ECD held by immobilized 6B5 (competitor). How it is done:
as §1

For experiment [14] the target is unchanged. Description: Octet epitope binning; antibody in solution on GCGR ECD held by immobilized 1A8 (competitor). How it is done:
as §1

For experiment [15] the target is unchanged. The experiment in a line: Octet epitope binning; antibody in solution on GCGR ECD held by immobilized 1D2 (competitor). How it is done: as §1
Experiment [16] shares this target. The experiment in a line: Octet epitope binning; antibody in solution on GCGR ECD held by immobilized 13G9 (competitor). How it is done: as §1

A value given as a limit tells only on which side of the number the result lay.

Usually Kd stands for the constant that tells how readily two partners part at equilibrium.

T1 sequence (P47871 26-136 limits assumed): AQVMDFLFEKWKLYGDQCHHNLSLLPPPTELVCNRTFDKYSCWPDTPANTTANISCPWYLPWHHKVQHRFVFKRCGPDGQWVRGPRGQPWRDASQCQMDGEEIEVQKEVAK
Sequence of full-length human GCGR on CHO cells (P47871 26-477): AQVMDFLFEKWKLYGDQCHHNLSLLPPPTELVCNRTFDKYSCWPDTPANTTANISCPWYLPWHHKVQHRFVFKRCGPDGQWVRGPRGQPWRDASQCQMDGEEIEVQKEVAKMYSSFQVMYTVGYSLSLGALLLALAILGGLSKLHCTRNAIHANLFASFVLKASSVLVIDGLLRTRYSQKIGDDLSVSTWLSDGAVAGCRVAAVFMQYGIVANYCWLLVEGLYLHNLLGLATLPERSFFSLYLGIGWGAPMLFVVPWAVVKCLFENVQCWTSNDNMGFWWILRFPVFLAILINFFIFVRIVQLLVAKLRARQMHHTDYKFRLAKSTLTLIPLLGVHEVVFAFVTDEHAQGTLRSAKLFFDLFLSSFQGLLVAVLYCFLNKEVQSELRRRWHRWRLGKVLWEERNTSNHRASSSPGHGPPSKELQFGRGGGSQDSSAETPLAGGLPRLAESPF

B1: anti-GCGR antibody 3H5 (antibody, V domains shown)
VH: QVQLQQSGAELVKPGASVRLSCKASGNTFTNYWMHWVKQRPGQGLEWIGMIHPNSGSTHYNEKFKNKATLTVDKSSNTAYMQLSGLTSEDSAVYYCGATADYVMDYWGQGTSVTVSS
VL: DIVLTQTPLSLPVNIGDQASISCKSTKSLLNSDGFTYLDWYLQKPGQSPQLLINLVSNRFSGVPDRFSGSGSGTEFILKISRVEAEDLGVYYCFQSNFLPLTFGAGTKLELK
notes: mouse hybridoma monoclonal antibody; also called 3H-15
For the molecule B1, the “Shift on Octet by Antibody in Solution (nm)” value (shortened to “Shift on Octet by Antibody”) in experiment [1], in experiment [2], in experiment [3], in experiment [5], in experiment [6] and in [8] was < 0.05 nm each time. In addition, the “Shift on Octet by Antibody” value in experiment [9], in [10], in experiment [11], in [12], in experiment [13] and in experiment [14] was < 0.05 nm each time. Also, the “Shift on Octet by Antibody” value in [15] and in experiment [16] was < 0.05 nm in each case. The “cAMP assay-1 IC50” value in [4] stood at 24.6 nM. In addition, the Kd in experiment [7] worked out at 2.2 nM.
